Consider seven molecules from patent US20230048360A1 (EUREKA THERAPEUTICS, published 2023).

Test [1] deals with T1, cell surface-bound human GPC3 on GPC3+ HepG2 cells (human, UniProt P51654 25-560, GPI anchor and heparin sulfate side chains, as the filing describes native GPC3).
T1 construct: Endogenous GPC3 of the HepG2 line; also called Glypican 3; native GPC3
Nature of the test: apparent Kd from FACS on GPC3+ HepG2 cells; the row is GC33 L2K by paragraph 806.
Protocol: (§1) APC-conjugated anti-His tag mouse antibody (R&D Systems) was added in a volume of 100 μl, a 20-fold dilution of 5% FBS in PBS and 0.05% NaN₃ and incubated for 1 hour at 4° C. in the dark, then washed twice with PBS. The cells were fixed in 3-fold dilution of fixation buffer (BioLegend) in PBS in a volume of 150 μl. As a separate control, HepG2 cells were also incubated with APC-conjugated anti-His tag mouse antibody (R&D Systems) in the absence of any L2K bispecific antibody.

The target of test [2] is T1, cell surface-bound human GPC3 on GPC3+ …. Nature of the test: FACS titration on GPC3+ HepG2 cells, anti-His detection; the row is GC33 L2K by paragraph 806.
Protocol: as §1
The target in test [3] is T2, biotinylated rat GPC3 (rat, UniProt P13265 25-558, limits assumed, biotinylated (site not stated)).
T2 construct: also called rat bt-GPC3; rat GPC3 peptide
T2 sequence (P13265 25-558 limits assumed): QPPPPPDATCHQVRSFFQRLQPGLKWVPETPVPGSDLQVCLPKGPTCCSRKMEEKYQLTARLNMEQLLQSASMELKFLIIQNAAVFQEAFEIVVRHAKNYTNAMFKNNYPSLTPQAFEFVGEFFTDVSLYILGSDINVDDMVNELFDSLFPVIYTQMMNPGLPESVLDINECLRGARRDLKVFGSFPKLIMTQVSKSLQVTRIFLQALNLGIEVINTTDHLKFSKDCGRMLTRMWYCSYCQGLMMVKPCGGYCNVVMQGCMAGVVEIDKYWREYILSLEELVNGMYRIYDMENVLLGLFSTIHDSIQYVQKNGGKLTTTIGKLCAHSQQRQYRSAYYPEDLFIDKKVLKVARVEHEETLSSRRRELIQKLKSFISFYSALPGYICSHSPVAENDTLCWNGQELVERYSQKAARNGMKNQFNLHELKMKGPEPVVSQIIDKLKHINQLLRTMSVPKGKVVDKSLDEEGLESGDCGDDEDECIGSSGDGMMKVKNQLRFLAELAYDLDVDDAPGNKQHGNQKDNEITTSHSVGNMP
Nature of the test: ELISA, biotinylated rat GPC3 on streptavidin plate. For orientation: In an ELISA, binding on a coated surface is turned into a signal by an enzyme label.

For test [4], the target named is T1, cell surface-bound human GPC3 on GPC3+ …. The experiment in a line: FACS, phage on GPC3+ HepG2 cells.
Protocol: The E-APLPHA™ scFv phage libraries were screened (panned) against human GPC3 by co-incubation with recombinant GPC3-expressing SK-Hep1 cells (SK-Hep1-GPC3), then confirmed by binding to GPC3+ HepG2 cells, both with flow cytometry (see Methods). 0.2 million SK-Hep1-GPC3 cells were co-incubated with the phage library (about 1×10⁷ pfu) for 1 hours at 4° C. The cell/phage mixture was washed in PBST, incubated with mouse anti-M13 antibody for 1 hour at 4° C., washed again in PBST, then incubated for 30 minutes in the dark at 4° C. with PE-conjugated anti-mouse IgG, and subjected to FACS analysis.
FACS was performed as described in Methods. […] Then cells were washed with PBS and fixed.
For test [5] the target is unchanged. Nature of the test: apparent Kd from FACS on GPC3+ HepG2 cells.
Protocol: as §1
Test [6] has the same target. The experiment in a line: FACS on GPC3+ HepG2 cells, labelled on the sheet GPC3A L2K against control L2K; control L2K median 93.8; axis PE-A.
Protocol: APC-conjugated anti-His tag mouse antibody (R&D Systems) was added in a volume of 100 μl, a 20-fold dilution of 5% FBS in PBS and 0.05% NaN₃ and incubated for 1 hour at 4° C. in the dark, then washed twice with PBS. The cells were fixed in 3-fold dilution of fixation buffer (BioLegend) in PBS in a volume of 150 μl.
In test [7] the target is T3, biotinylated recombinant human GPC3(560) (human, biotin on the C-terminal BirA substrate peptide ; Biotin on a lysine of the C-terminal BirA substrate peptide, which is not in the letters.).
T3 construct: Made in E. coli BL21 (pET-27b) from inclusion bodies and biotinylated with BirA; also called bt-GPC3(560); soluble bt-GPC3(560) protein
Nature of the test: SPR, Biacore X100, single-cycle kinetics, bt-GPC3(560) captured on chip, 1:1 model.
Protocol: All of the proteins used in the assay were diluted in HBS-E buffer prior to use. Briefly, 5-10 μg/ml of bt-GPC3₍₅₆₀₎ was immobilized onto a sensor chip pre-functionalized with CAPture Reagent and injected onto the flow cell. Affinity of the L2K bispecific antibodies for immobilized antigen was measured by injection of the various bispecific antibodies at 0.3-5 mg/ml with a 90 second association phase followed by a 90 second dissociation phase at a flow rate of 30 μl/min. At the end of each run, the surface of the sensor chip was regenerated using the reagents provided in the Biotin CAPture kit. Binding constants were determined by nonlinear regression analysis using a 1:1 binding model (BIACORE™ X-100 evaluation software, FIGS. 15A and 15B). The association-on-rate-kₒₙ, affinity constant-kₐ, dissociation constant-kd, and equilibrium dissociation constant-Kd were then calculated for each L2K clone (Table 14).

Test [8] concerns the target T1, cell surface-bound human GPC3 on GPC3+ …. The experiment in a line: FACS titration on GPC3+ HepG2 cells, anti-His detection.
Protocol: as §1
Test [9] has the same target. Nature of the test: flow cytometry at 10 µg/mL, PE anti-mouse IgG detection. In general terms: Flow cytometry measures light scatter and fluorescence of single cells or particles in a stream.
Protocol: Anti-GPC3 mIgG1 antibodies were tested for the binding towards GPC3-positive HepG2 and GPC3-negative SK-Hep1 cells by flow cytometry. 10 μg/mL of constructed antibody was added to cells on ice for 1 hour.

B1: GC33 L2K (bispecific antibody, V domains shown)
VH: QVQLQQSGAELVKPGASVKLSCKASGYTFTDYEMHWVKQTPVHGLKWMIGALDPKTGDTAYSQKFKGKATLTADKSSSTAYMELRSLTSEDSAVYYCTRFYSYTYWGQGTLVTVSA
VL: DVVMTQTPLSLPVSLGDQASISCRSSQSLVHSNGNTYLHWYLQKPGQSPKLLIYKVSNRFSGVPDRFSGSGSGTDFTLKISRVEAEDLGVYFCSQNTHVPPTFGSGTKLEIK
notes: Tested as a single-chain tandem di-scFv: scFv of GC33 fused to an anti-human CD3 epsilon scFv, with a hexahistidine tag; also called GC33 antibody converted to an L2K
For B1, the Kd in [1] amounted to 2.7 nM. Moreover, in test [2], it took 0.14 µg/mL to reach a half-maximal effect (EC50).

B2: GPC3A-53 mIgG1 clone (antibody, V domains shown)
VH: QLQLQESGPGLVKPSETLSLTCTVSGGSISSSSYYWGWIRQPPGKGLEWIGSIYYSGSTYYNPSLKSRVTISVDTSKNQFSLKLSSVTAADTAVYYCARWWSGSYDTWGQGTLVTVSS
VL: QSVLTQPPSASAAPGQRVTISCSGTSSNIGSNYVWWYQQLPGAAPRLLIYGNSNRPSGVPDRFSGSKSGTSASLAITGLQAEDEADYYCQSYDSSLSGSNVFGTGTKVTVLG
notes: Mouse chimeric IgG1; also called GPC3A mIgG1 clone A-53
B2: the binding result in test [3] was “no binding (tested: 5 µg/mL)”.

B3: GPC3A-38 phage clone (scFv)
scFv: QSVLTQPPSVSVAPGKTARITCGGNNIGSKSVHWYQQKPGQAPVLVIYYDSDRPSGIPERFSGSNSGNTATLTISRVEAGDEADYYCQVWDSSSDHVVFGGGTKLTVLGSRGGGGSGGGGSGGGGSLEMAQVQLVQSGAEVKKPGASVKVSCKASGYTFTSYYMHWVRQAPGQGLEWMGIINPSGGSTSYAQKFQGRVTMTRDTSTSTVYMELSSLRSEDTAVYYCARKVTGYDSWGQGTLVTVSS
notes: also called GPC3A-038
In the case of B3, the binding result in test [4] is listed as “binds”.

B4: GPC3A-58 L2K (bispecific antibody)
chain: QSVLTQPPSVSVAPGKTARITCGGNNIGSKSVHWYQQKPGQAPVLVVYDDSDRPSGIPERFSGSNSGNTATLTISRVEAGDEADYYCQVWDSSSDHVFGTGTKVTVLGSRGGGGSGGGGSGGGGSLEMAQVQLVQSGADVRKPGASVKVSCKASGYTFASHGISWVRQAPGQGLEWLGWISPYTGNTNYAQKFQGRVTMATDTSTSTAYMELRSLRSDDTAIYYCARGKRTLASCFDYWGQGTLVTVSSTSGGGGSDVQLVQSGAEVKKPGASVKVSCKASGYTFTRYTMHWVRQAPGQGLEWIGYINPSRGYTNYADSVKGRFTITTDKSTSTAYMELSSLRSEDTATYYCARYYDDHYCLDYWGQGTTVTVSSGEGTSTGSGGSGGSGGADDIVLTQSPATLSLSPGERATLSCRASQSVSYMNWYQQKPGKAPKRWIYDTSKVASGVPARFSGSGSGTDYSLTINSLEAEDAATYYCQQWSSNPLTFGGGTKVEIKHHHHHH
notes: also called GPC3A L2K bispecific antibody #58
For B4, the Kd in test [5] amounted to 2.4 nM. In addition, the “Median : PE-A” value in test [6] came to 8030. Moreover, in test [7], the Kd turned out to be 5.1 nM; the koff – broadly, a measure of how fast the partners let go of each other – is 0.00188 s⁻¹; the kon – broadly, a measure of how fast the partners come together – was determined as 368000 M⁻¹ s⁻¹. In [8], the EC50 (as a rule, the concentration that produces a half-maximal response) came out at 0.12 µg/mL.

B5: anti-GPC3 mIgG1 clone A-64 (antibody, V domains shown)
VH: QMQLVQSGAEVKKPGASVKVSCKASGYTFTIYGISWVRQAPGQGLEWMGWISPYNDNTIYAQKVQGRVTMTTDTSTSTAYMELRSLRSDDTAVYYCARMGVGWGYAQDSWGQGTLVTVSS
VL: LPVLTQPPSLSVAPGKTARLTCGGNNIGSKSVHWYHQKPGQAPVLVVYDDTDRPSGIPERFSGSNSGNTAALTISRVEVGDEADYYCQVWDRSSAHWVFGGGTKLTVLG
notes: Fused to mouse IgG1 heavy chain and light chain constant regions
In the case of B5, the binding result in test [9] is “binds”.

B6: GPC3A-62 phage clone (scFv)
scFv: QSVLTQPPSVSGAPGQRVTISCTGSSSNIGAGYDVHWYQQLPGTAPKLLIYGNSNWPSGVPDRFSGSKSGTSASLAITGLRAEDEADYYCQSYDSSLSGSYVFGTGTKVTVLGSRGGGGSGGGGSGGGGSLEMAQMQLVQSGSELKKPGASVKVSCKASGGTFSSYAISWVRQAPGQGLEWMGGIIPKIGTANYAQKFQGRVTITADESTSTAYMELSSLRSEDTAMYYCARMYMDMGWGWGYWDWWGQGTLVTVSS
notes: also called GPC3A-062
Consider B6, for which, in test [4], the binding result was “binds”.

B7: anti-GPC3 mIgG1 clone A-51 (antibody, V domains shown)
VH: QVQLVQSGAEVKKPGSSVKVSCKASGGAFSSYAISWVRQAPGQGLEWMGGIIPIFGTANYAQKFQGRVTITADESTSTAYMELSSLRSEDTAVYYCARMLYLSGRYYWDSWGQGTLVTVSS
VL: QAVLTQPSSASGAPGQRVTISCTGGSSNIGAGYDVHWYQQLPGTAPKLLIYGNSNRPSGVPDRFSGSKSGTSASLAITGLQAEDEADYYCQSYDSSLSGYVFGTGTKVTVLG
notes: as for B5
With B7, in test [9], the binding result is recorded as “binds”.
